# Source: patent US20120219551A1
# Values joined by “and” are separate entries in the source; they are usually repeats but may differ in a detail not shown here. Equal entries are not always repeated.
# Legend:
# [1] = target: CD32A-G2Ag (human) (UniProt P12318); experiment: relative off-rate wt/variant; method not given (BIAcore elsewhere)
# [2] = target: CD32B-G2Ag (human) (UniProt P31994); experiment: as above
# [3] = target: CD16A(V158) (human) (UniProt P08637); experiment: as above
# [4] = target: CD16A(F158) (human) (UniProt P08637); experiment: as above
# CD16A(F158) (human), sequence (P08637 17-208): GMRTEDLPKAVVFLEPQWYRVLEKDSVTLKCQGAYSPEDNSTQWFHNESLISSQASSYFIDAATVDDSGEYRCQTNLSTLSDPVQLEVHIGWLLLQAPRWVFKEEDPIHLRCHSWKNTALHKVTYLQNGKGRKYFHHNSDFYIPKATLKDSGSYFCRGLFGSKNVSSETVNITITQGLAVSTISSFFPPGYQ
# [5] = target: FcγRIIB, soluble dimeric protein (extracellular domain fused to the hinge-CH2-CH3 domain of human IgG2) (human) (UniProt P31994); experiment: ELISA
# FcγRIIB, soluble dimeric protein (extracellular domain fused to the hinge-CH2-CH3 domain of human IgG2) (human), sequence (P31994 43-217): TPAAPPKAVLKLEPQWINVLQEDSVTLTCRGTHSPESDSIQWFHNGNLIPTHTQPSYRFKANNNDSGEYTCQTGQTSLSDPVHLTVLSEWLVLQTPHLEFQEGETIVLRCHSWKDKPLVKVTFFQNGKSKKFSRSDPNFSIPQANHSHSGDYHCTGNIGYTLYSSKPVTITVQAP
# [6] = target: FcγRIIIA, soluble monomeric protein (extracellular region joined to the linker-AVITAG sequence) (human) (UniProt P08637); experiment: ELISA
# FcγRIIIA, soluble monomeric protein (extracellular region joined to the linker-AVITAG sequence) (human), sequence (P08637 17-208 F176V limits assumed): as the sequence (P08637 17-208) above, with F160V counted along it
# [7] = target: FcγRIIIA on natural killer cells of human donor PBMC (human) (UniProt P08637); experiment: cell-based or functional assay
# FcγRIIIA on natural killer cells of human donor PBMC (human), sequence (P08637 17-254): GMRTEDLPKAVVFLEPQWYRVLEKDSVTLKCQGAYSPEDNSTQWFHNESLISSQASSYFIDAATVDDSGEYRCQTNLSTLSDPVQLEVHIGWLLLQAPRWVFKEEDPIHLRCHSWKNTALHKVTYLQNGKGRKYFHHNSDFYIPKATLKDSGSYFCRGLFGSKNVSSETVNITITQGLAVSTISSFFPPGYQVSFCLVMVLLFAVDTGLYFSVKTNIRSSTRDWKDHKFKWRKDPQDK
# [8] = target: soluble monomeric FcγRIIIA 158V (extracellular region joined to linker-AVITAG) (human) (UniProt P08637); experiment: SPR (BIAcore), Fc mutant in ch4-4-20, off rate relative to wild type
# soluble monomeric FcγRIIIA 158V (extracellular region joined to linker-AVITAG) (human), sequence (P08637 17-208 F176V): as the sequence (P08637 17-208) above, with F160V counted along it
# [9] = target: soluble dimeric FcγRIIB-Fc fusion protein (extracellular domain of FcγRIIB fused to hinge-CH2-CH3 of human IgG2) (human) (UniProt P31994); experiment: as above
# soluble dimeric FcγRIIB-Fc fusion protein (extracellular domain of FcγRIIB fused to hinge-CH2-CH3 of human IgG2) (human), sequence (P31994 43-217): as the sequence (P31994 43-217) above
# [10] = target: soluble dimeric FcγRIIB-Fc fusion protein (extracellular domain of FcγRIIB fused to hinge-CH2-CH3 of human IgG2) (human) (UniProt P31994); experiment: SPR (BIAcore), Ab captured on BSA-FITC, separate fit 200/800 nM
# [11] = target: soluble monomeric FcγRIIIA (extracellular region of FcγRIIIA joined to the linker-AVITAG sequence) (human) (UniProt P08637); experiment: ELISA
# soluble monomeric FcγRIIIA (extracellular region of FcγRIIIA joined to the linker-AVITAG sequence) (human), sequence (P08637 17-208): as the sequence (P08637 17-208) above
# [12] = target: soluble dimeric FcγRIIB-Fc fusion protein (extracellular domain of FcγRIIB fused to hinge-CH2-CH3 of human IgG2) (human) (UniProt P31994); experiment: ELISA
# [13] = target: soluble monomeric FcγRIIIA (extracellular region of FcγRIIIA joined to the linker-AVITAG sequence) (human) (UniProt P08637); experiment: SPR (BIAcore), Ab captured on BSA-FITC, separate fit 200/800 nM
# [14] = target: FcγRIIA (CD32A), H131 allotype (human) (UniProt P12318); experiment: BIAcore
# FcγRIIA (CD32A), H131 allotype (human), sequence (P12318 34-217 limits assumed): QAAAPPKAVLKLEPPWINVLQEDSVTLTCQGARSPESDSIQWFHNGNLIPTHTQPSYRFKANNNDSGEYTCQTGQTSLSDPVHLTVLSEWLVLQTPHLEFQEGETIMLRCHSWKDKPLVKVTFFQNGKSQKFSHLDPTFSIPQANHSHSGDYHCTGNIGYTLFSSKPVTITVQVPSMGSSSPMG
# [15] = target: FcγRIIB (CD32B) (human) (UniProt P31994); experiment: BIAcore
# FcγRIIB (CD32B) (human), sequence (P31994 43-217 limits assumed): as the sequence (P31994 43-217) above
# [16] = target: FcγRIIIA (CD16A), F158 allotype (human) (UniProt P08637); experiment: BIAcore
# FcγRIIIA (CD16A), F158 allotype (human), sequence (P08637 17-208 limits assumed): as the sequence (P08637 17-208) above
# [17] = target: FcγRIIIA (CD16A), V158 allotype (human) (UniProt P08637); experiment: BIAcore
# FcγRIIIA (CD16A), V158 allotype (human), sequence (P08637 17-208 F176V limits assumed): as the sequence (P08637 17-208) above, with F160V counted along it
# [18] = target: FcγRIIB (CD32B) (human) (UniProt P31994); experiment: BIAcore (as Table 27)
# [19] = target: FcγRIIIA (CD16A), V158 allotype (human) (UniProt P08637); experiment: BIAcore (as Table 27)
# [20] = target: FcγRIIB (CD32B) (human) (UniProt P31994); experiment: BIAcore (as Table 27); cells shifted one column to the left
# [21] = target: FcγRIIIA (CD16A), F158 allotype (human) (UniProt P08637); experiment: BIAcore (as Table 27)
# [22] = target: FcγRIIA (CD32A), H131 allotype (human) (UniProt P12318); experiment: not stated; human FcRs
# [23] = target: FcγRIIB (CD32B) (human) (UniProt P31994); experiment: not stated; human FcRs
# [24] = target: FcγRIIIA (CD16A), F158 allotype (human) (UniProt P08637); experiment: not stated; human FcRs
# [25] = target: FcγRIIIA (CD16A), V158 allotype (human) (UniProt P08637); experiment: not stated; human FcRs
# [26] = target: 2aRFcagl (FcγRIIA 131R-Fc fusion) (human) (UniProt P12318)
# 2aRFcagl (FcγRIIA 131R-Fc fusion) (human), sequence (P12318 34-217 H167R): as the sequence (P12318 34-217 limits assumed) above, with H134R counted along it
# [27] = target: 2bFcagl (FcγRIIB-Fc fusion) (human) (UniProt P31994)
# 2bFcagl (FcγRIIB-Fc fusion) (human), sequence (P31994 43-217): as the sequence (P31994 43-217) above
# [28] = target: FcγRIIIA (CD16A), F158 allotype (human) (UniProt P08637)
# [29] = target: FcγRIIIA (CD16A), V158 allotype (human) (UniProt P08637)
# [30] = target: 2aHFcagl (FcγRIIA 131H-Fc fusion) (human) (UniProt P12318)
# 2aHFcagl (FcγRIIA 131H-Fc fusion) (human), sequence (P12318 34-217): as the sequence (P12318 34-217 limits assumed) above
# CD32A-G2Ag (human), sequence (P12318 34-217): as the sequence (P12318 34-217 limits assumed) above
# CD16A(V158) (human), sequence (P08637 17-208 F176V): as the sequence (P08637 17-208) above, with F160V counted along it
# CD32B-G2Ag (human), sequence (P31994 43-217): as the sequence (P31994 43-217) above
substance,measurement,setting,value
"Antibody 2B6 3.5 Fc Variant 48 (F243L, R292P, V305I)",Koff ratio (wt/mut),[1],0.1 wt/mut
same,Koff ratio (wt/mut),[2],0.2 wt/mut
same,Koff ratio (wt/mut),[3],2.6 wt/mut
same,Koff ratio (wt/mut),[4],1.4 wt/mut
"Antibody ch2.4G2 Fc Variant 51 (F243L, R292P, Y300L, V305I, P396L)",Koff ratio (wt/mut),[1],1.4 wt/mut
same,Koff ratio (wt/mut),[2],3.2 wt/mut
same,Koff ratio (wt/mut),[3],10.1 wt/mut
same,Koff ratio (wt/mut),[4],8.3 wt/mut
"Fc variant D221Y, M252I, A330G, A339T, T359N, V422I, H433L (antibody)",fold change vs WT,[5],6 fold
"Fc variant D399E, R292L, V185M (antibody)",fold change vs WT,[5],0.5 fold
"Fc variant E258D, N384K (antibody)",fold change vs WT,[5],4 fold
same,fold change vs WT,[6],1.25 fold
"Fc variant K317N, F423-deleted (antibody)",fold change vs WT,[5],7 fold
"Fc variant K370N, S440N (antibody)",fold change vs WT,[5],3.5 fold
"Fc variant S415I, L251F (antibody)",fold change vs WT,[5],0.75 fold
same,fold change vs WT,[6],0.5 fold
ch4-4-20 MgFc37 (K248M) (antibody),"Relative rate of lysis (ADCC, vs wild type ch4-4-20)",[7],3.83
same,Koff WT/Mut,[8],0.977
same,Koff WT/Mut,[9],1.03
"ch4-4-20 MgFc38 (K392T, P396L) (antibody)","Relative rate of lysis (ADCC, vs wild type ch4-4-20)",[7],3.07
same,Koff WT/Mut,[8],1.64
same,Koff WT/Mut,[9],2.3
"ch4-4-20 MgFc39 (E293V, Q295E, A327T) (antibody)","Relative rate of lysis (ADCC, vs wild type ch4-4-20)",[7],4.29
same,Koff WT/Mut,[8],0.86
same,Koff WT/Mut,[9],1.3
"ch4-4-20 MgFc41 (H268N, P396L) (antibody)","Relative rate of lysis (ADCC, vs wild type ch4-4-20)",[7],2.24
same,Koff WT/Mut,[8],0.92
same,Koff WT/Mut,[9],1.04
"ch4-4-20 MgFc43 (Y319F, P352L, P396L) (antibody)","Relative rate of lysis (ADCC, vs wild type ch4-4-20)",[7],1.09
same,Koff WT/Mut,[8],1.23
same,Koff WT/Mut,[9],2.29
"ch4-4-20 MgFc43b (K288R, T307A, K344E, P396L) (antibody)","Relative rate of lysis (ADCC, vs wild type ch4-4-20)",[7],3.3
same,Koff WT/Mut,[8],1.27
same,Koff WT/Mut,[9],0.89
"ch4-4-20 MgFc49 (K261N, K210M, P396L) (antibody)","Relative rate of lysis (ADCC, vs wild type ch4-4-20)",[7],2.06
same,Koff WT/Mut,[8],1.29
same,Koff WT/Mut,[9],0.85
"ch4-4-20 Mut10 (P396L, A330S, K288N) (antibody)",Kd,[10],41.3 nM
same,"ADCC, %",[7],41%
same,"ELISA, OD",[11],1 OD
same,"ELISA, OD",[12],1.2 OD
"ch4-4-20 Mut14 (K288M, K334E) (antibody)",Kd,[13],75.4 nM
same,koff,[13],0.1 s⁻¹
same,kon,[13],1.37e+06 M⁻¹ s⁻¹
same,Kd,[10],95.6 nM
same,koff,[10],0.089 s⁻¹
same,"ADCC, %",[7],28%
same,"ELISA, OD",[11],1.1 OD
same,"ELISA, OD",[12],0.13 OD
ch4-4-20 Mut16 (F372Y) (antibody),Kd,[13],84.8 nM
same,"ADCC, %",[7],15%
same,"ELISA, OD",[11],1 OD
same,"ELISA, OD",[12],1.55 OD
ch4-4-20 Mut18 (K326E) (antibody),Kd,[13],92 nM
same,koff,[13],0.112 s⁻¹
same,kon,[13],1.23e+06 M⁻¹ s⁻¹
same,Kd,[10],51.7 nM
same,koff,[10],0.043 s⁻¹
same,"ADCC, %",[7],28%
same,"ELISA, OD",[11],1 OD
same,"ELISA, OD",[12],1.25 OD
"ch4-4-20 Mut19 (K334N, K246I) (antibody)",Kd,[10],45.3 nM
same,"ADCC, %",[7],11%
same,"ELISA, OD",[11],0.75 OD
"ch4-4-20 Mut23 (K334E, R292L) (antibody)",Kd,[13],70.2 nM
same,koff,[13],0.105 s⁻¹
same,kon,[13],1.43e+06 M⁻¹ s⁻¹
same,Kd,[10],108 nM
same,koff,[10],0.107 s⁻¹
same,"ADCC, %",[7],25%
same,"ELISA, OD",[11],1.25 OD
same,"ELISA, OD",[12],0.1 OD
"immunoglobulin with Fc variant D270E, G316D, P396L, R416G (antibody)",Koff WT/Koff mutant,[14],0.95
same,Koff WT/Koff mutant,[15],1.07
same,Koff WT/Koff mutant,[16],0.94
same,Koff WT/Koff mutant,[17],1.22
same,Koff WT/Koff mutant,[18],1.07
same,Koff WT/Koff mutant,[19],1.22
same,Koff WT/Koff mutant,[20],1.07
"immunoglobulin with Fc variant D270E, G316D, R416G (antibody)",Koff WT/Koff mutant,[14],1.95
same,Koff WT/Koff mutant,[15],0.78
same,Koff WT/Koff mutant,[16],2.49
same,Koff WT/Koff mutant,[17],2.18
same,Koff WT/Koff mutant,[18],0.78
same,Koff WT/Koff mutant,[21],2.49
same,Koff WT/Koff mutant,[19],2.18
same,fold change vs wild-type affinity,[22],0.4 fold
same,fold change vs wild-type affinity,[23],-1.7 fold
same,fold change vs wild-type affinity,[24],0.1 fold
same,fold change vs wild-type affinity,[25],0.4 fold
"immunoglobulin with Fc variant F243L, R292P (antibody)",Koff WT/Koff mutant,[14],0.34 and 0.52
same,Koff WT/Koff mutant,[15],0.12 and 0.16
same,Koff WT/Koff mutant,[16],0.6 and 1.67
same,Koff WT/Koff mutant,[17],4.73 and 4
same,Koff WT/Koff mutant,[18],0.12 and 0.16
same,Koff WT/Koff mutant,[21],1.67
same,Koff WT/Koff mutant,[19],4.73 and 4
same,Koff WT/Koff mutant,[20],0.12
same,fold change vs wild-type affinity,[22],-0.9 fold
same,fold change vs wild-type affinity,[23],-5.3 fold
same,fold change vs wild-type affinity,[24],0.7 fold
same,fold change vs wild-type affinity,[25],3 fold
"immunoglobulin with Fc variant F243L, R292P, V305I (antibody)",Koff WT/Koff mutant,[14],0.23
same,Koff WT/Koff mutant,[16],1.43
same,Koff WT/Koff mutant,[17],2.56
same,Koff WT/Koff mutant,[21],1.43
same,Koff WT/Koff mutant,[19],2.56
same,fold change vs wild-type affinity,[22],-3.3 fold
same,fold change vs wild-type affinity,[23],-13.3 fold
same,fold change vs wild-type affinity,[24],0.4 fold
same,fold change vs wild-type affinity,[25],1.6 fold
"immunoglobulin with Fc variant L234F, F243L, R292P, Y300L (antibody)",binding relative to wt (wt = 1),[26],0.2
same,binding relative to wt (wt = 1),[27],0.2
same,binding relative to wt (wt = 1),[28],1.6
same,binding relative to wt (wt = 1),[29],1.7
same,binding relative to wt (wt = 1),[30],0.3
"immunoglobulin with Fc variant L235I, F243L, R292P, Y300L (antibody)",binding relative to wt (wt = 1),[26],0.1
same,binding relative to wt (wt = 1),[27],0.2
same,binding relative to wt (wt = 1),[28],3.3
same,binding relative to wt (wt = 1),[29],2.6
same,binding relative to wt (wt = 1),[30],0.5
"immunoglobulin with Fc variant L235Q, F243L, R292P, Y300L (antibody)",binding relative to wt (wt = 1),[29],1.8
same,binding relative to wt (wt = 1),[30],0.2
immunoglobulin with Fc variant P396L (antibody),Koff WT/Koff mutant,[14],1.63
same,Koff WT/Koff mutant,[15],2.58
same,Koff WT/Koff mutant,[16],1.73
same,Koff WT/Koff mutant,[17],1.27
same,Koff WT/Koff mutant,[18],2.58
same,Koff WT/Koff mutant,[21],1.73
same,Koff WT/Koff mutant,[19],1.27
same,fold change vs wild-type affinity,[22],0.6 fold
same,fold change vs wild-type affinity,[23],1.6 fold
same,fold change vs wild-type affinity,[24],0.7 fold
same,fold change vs wild-type affinity,[25],0.3 fold
"immunoglobulin with Fc variant S239D, A330L, I332E (control XmAb) (antibody)",fold change vs wild-type affinity,[22],0 fold
same,fold change vs wild-type affinity,[23],0.74 fold
same,fold change vs wild-type affinity,[24],8.1 fold
same,fold change vs wild-type affinity,[25],13.9 fold
"immunoglobulin with Fc variant S298A, E333A, K334A (control AAA) (antibody)",fold change vs wild-type affinity,[22],-3.3 fold
same,fold change vs wild-type affinity,[23],-2.5 fold
same,fold change vs wild-type affinity,[24],0.1 fold
same,fold change vs wild-type affinity,[25],0.6 fold
immunoglobulin with Fc variant Y300L (antibody),Koff WT/Koff mutant,[14],1.86
same,Koff WT/Koff mutant,[15],1.18
same,Koff WT/Koff mutant,[16],1.17
same,Koff WT/Koff mutant,[17],1.01
same,Koff WT/Koff mutant,[18],1.18
same,Koff WT/Koff mutant,[19],1.01
same,fold change vs wild-type affinity,[22],1.9 fold
same,fold change vs wild-type affinity,[23],0.2 fold
same,fold change vs wild-type affinity,[24],0.2 fold
same,fold change vs wild-type affinity,[25],0 fold
